Reference: patent publication US20260049151A1 (SHENGHE CHINA BIOPHARMACEUTICAL, published 2026)
Like-named read-outs stand apart in the source and are kept apart here.

B1: Antibody F (bispecific antibody, human IgG1, kappa)
light: DIVMTQSPATLSVSPGERATLSCKASQNVGSNVDWYQQKPGQSPRVLIYKASIRYTGIPARFSGSGSGTEFTLTISILQSEDFAVYFCMQSKSYPITFGQGTKLEIKRTVAAPSVFIFPPSDEQLKSGTASVVCLLNNFYPREAKVQWKVDNALQSGNSQESVTEQDSKDSTYSLSSTLTLSKADYEKHKVYACEVTHQGLSSPVTKSFNRGECGGGGSGGGGSQVQLQESGPGLVKPSETLSLTCTVSGSSLTSYGVHWVRQPPGKCLEGLGVIWPGGSTNYNSALMSRVTISKDNSKSQVSLKMSSLTAADTAVYYCARVTGTWYFDVWGQGTTVTVSSGGGGSGGGGSGGGGSDIQMTQSPSSLSASLGDRVTISCSASQGISNYLNWYQQKPDGTVKLLIYYTSTLHSGVPSRFSGSGSGTDYTLTISSLQPEDIATYYCQQYSKLPWTFGCGTKLEIK
heavy: not shown
notes: IgG1 subtype; full-length TNFR2 antibody with 4-1BB scFv at the C-terminus of the light chains
B2: Antibody D (bispecific antibody, human IgG1, kappa)
light: EVQLVQSGAEVKKPGATVKISCKVSGYSITDYLLHWVQQAPGKCLEWMGWIDPEDAKTKYGQKFQSRVTITADTSTDTAYMELSSLRSEDTAVYYCAANSGTGTMDAWGQGTLVTVSSGGGGSGGGGSGGGGSDIVMTQSPATLSVSPGERATLSCKASQNVGSNVDWYQQKPGQSPRVLIYKASIRYTGIPARFSGSGSGTEFTLTISILQSEDFAVYFCMQSKSYPITFGCGTKLEIKGGGGSGGGGSGGGGSDIQMTQSPSSLSASLGDRVTISCSASQGISNYLNWYQQKPDGTVKLLIYYTSTLHSGVPSRFSGSGSGTDYTLTISSLQPEDIATYYCQQYSKLPWTFGGGTKLEIKRTVAAPSVFIFPPSDEQLKSGTASVVCLLNNFYPREAKVQWKVDNALQSGNSQESVTEQDSKDSTYSLSSTLTLSKADYEKHKVYACEVTHQGLSSPVTKSFNRGEC
heavy: not shown
notes: IgG1 subtype; full-length 4-1BB antibody with TNFR2 scFv at the N-terminus of the light chains
B3: Antibody B (bispecific antibody, human IgG1, kappa)
light: DIQMTQSPSSLSASLGDRVTISCSASQGISNYLNWYQQKPDGTVKLLIYYTSTLHSGVPSRFSGSGSGTDYTLTISSLQPEDIATYYCQQYSKLPWTFGGGTKLEIKRTVAAPSVFIFPPSDEQLKSGTASVVCLLNNFYPREAKVQWKVDNALQSGNSQESVTEQDSKDSTYSLSSTLTLSKADYEKHKVYACEVTHQGLSSPVTKSFNRGECGGGGSGGGGSEVQLVQSGAEVKKPGATVKISCKVSGYSITDYLLHWVQQAPGKCLEWMGWIDPEDAKTKYGQKFQSRVTITADTSTDTAYMELSSLRSEDTAVYYCAANSGTGTMDAWGQGTLVTVSSGGGGSGGGGSGGGGSDIVMTQSPATLSVSPGERATLSCKASQNVGSNVDWYQQKPGQSPRVLIYKASIRYTGIPARFSGSGSGTEFTLTISILQSEDFAVYFCMQSKSYPITFGCGTKLEIK
heavy: not shown
notes: IgG1 subtype; full-length 4-1BB antibody with TNFR2 scFv at the C-terminus of the light chains

How the values were obtained:
[1] = molecular target: T1, Human-TNFR2-His (human, UniProt P20333 23-257); test: ELISA: Human-TNFR2-His coated (0.1 ug/mL), antibody titrated, goat anti-human IgG Fc detection (Example 2)
T1 construct: Bought protein; also called human TNFR2 protein; TNFR2 protein; not shown: His tag
T1 sequence (looked up): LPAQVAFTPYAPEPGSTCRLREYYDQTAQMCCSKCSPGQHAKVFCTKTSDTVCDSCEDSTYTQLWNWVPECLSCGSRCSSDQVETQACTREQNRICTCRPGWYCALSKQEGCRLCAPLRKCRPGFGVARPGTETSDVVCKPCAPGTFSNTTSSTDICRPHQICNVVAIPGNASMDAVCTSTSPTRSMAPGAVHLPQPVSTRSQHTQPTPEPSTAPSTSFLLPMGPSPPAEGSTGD
Description: (§1) Human-TNFR2-His (manufacturer: SINO, CAT: 10417-H08H, LOT: LC15NO0412) was diluted to 0.1 μg/mL with a coating solution (1×PBS, pH7.4), and coated in 96-well ELISA plate at 100 µL/well overnight at 4° C. The coating solution was poured off. Each well was washed with 1×PBST at 300 μL, washed 4 times with a plate washer, and patted dry on a flat paper. It was blocked with 3% skim milk powder at 300 μL/well, and incubated at 37° C. for 1 h. The blocking solution was poured off, washed 4 times with a plate washer, and patted dry on a flat paper. Negative control and positive control were set up. […] The positive control and antibody were diluted to 10 μg/mL with 3% skim milk powder as the starting concentration, and then diluted by 3-fold gradient (11 gradients in total), and a blank well was set up and only the diluent was added. It was incubated at 37° C. for 1 h at 100 μL/well. The liquid in the well was discarded, washed 4 times with a plate washer, and patted dry on a flat paper. Goat anti-human IgG Fc was diluted with 3% skim milk powder at 1:10000, and incubated at 37° C. for 1 h at 100 μL/well. It was washed 6 times with a plate washer, and patted dry on a flat paper. TMB color developing solution was added at 100 μL/well, and wrapped with aluminum foil. Color development was performed at 37° C. in the dark for 8 min. Termination solution 1M HCl was added to terminate the color development reaction at 100 μL/well. Readings were taken at 450 nm on an ELISA reader.

[2] = molecular target: T2, Human 4-1BB His (human, UniProt Q07011 24-186); test: ELISA: Human 4-1BB His coated (0.2 ug/mL), antibody titrated, goat anti-human IgG Fc detection (Example 3)
T2 construct: Bought protein; lots 198-2146F1-W6 and 2407c-214FF1-YC; also called human 4-1BB protein; 4-1BB protein; not shown: His tag
Description: Human 4-1BB His (manufacturer: Acro, CAT: 41B-H5258, LOT: 198-2146F1-W6) was diluted to 0.2 μg/mL with a coating solution (1×PBS, pH7.4), and coated in 96-well ELISA plate at 100 μL/well overnight at 4° C. The coating solution was poured off. Each well was washed with 1×PBST at 300 μL, washed 4 times with a plate washer, and patted dry on a flat paper. It was blocked with 3% skim milk powder at 300 μL/well, and incubated at 37° C. for 1 h. The blocking solution was poured off, washed 4 times with a plate washer, and patted dry on a flat paper. Negative control and positive control were set up. […] The variable region of the antibody sequence of the positive control consists of SEQ ID NO: 15 and SEQ ID NO: 19, with the addition of the constant region of human IgG1 (SEQ ID NO: 46 and SEQ ID NO: 47). The positive control and antibody were diluted to 10 μg/mL with 3% skim milk powder as the starting concentration, and then diluted by 3-fold gradient (11 gradients in total), and a blank well was set up and only the diluent was added. It was incubated at 37° C. for 1 h at 100 μL/well. The liquid in the well was discarded, washed 4 times with a plate washer, and patted dry on a flat paper. Goat anti-human IgG Fc was diluted with 3% skim milk powder at 1:20000, and incubated at 37° C. for 1 h at 100 μL/well. It was washed 6 times with a plate washer, and patted dry on a flat paper. TMB color developing solution was added at 100 μL/well, and wrapped with aluminum foil. Color development was performed at 37° C. in the dark for 8 min. Termination solution 1M HCl was added to terminate the color development reaction at 100 μL/well. Readings were taken at 450 nm on an ELISA reader.

[3] = molecular target: T3, Human 4-1BB Fc (human, UniProt Q07011 24-186); test: bridging ELISA: Human 4-1BB Fc coated (0.3 ug/mL), antibody titrated, then Human-TNFR2-His (0.3 ug/mL), HRP anti-His detection (Example 4)
T3 construct: same catalogue and lot number as Human 4-1BB His; not shown: Fc
Description: Human 4-1BB Fc (manufacturer: Acro, CAT: 41B-H5258, LOT: 198-2146F1-W6) was diluted to 0.3 μg/mL with a coating solution (1×PBS, pH7.4) and coated into a 96-well ELISA plate at 100 µL/well at 4° C. overnight. The coating solution was poured off. Each well was washed with 1×PBST at 300 μL, washed 4 times with a plate washer, and patted dry on a flat sheet. It was blocked with 3% skim milk powder at 300 μL/well, and incubated at 37° C. for 1 h. The blocking solution was poured off, washed 4 times with a plate washer, and patted dry on a flat sheet. […] Starting at 50 nM, which was used as the initial concentration for 3-fold dilution, a total of 10 gradients were diluted, and a blank well was set up and only the diluent was added. It was incubated at 37° C. for 1 h at 100 μL/well. The liquid in the well was discarded, washed 4 times with a plate washer, and patted dry on a flat paper. Human-TNFR2-His (manufacturer: Sino, CAT: 10417-H08H, LOT: LC15NO0412) was diluted to 0.3 μg/mL, 100 μL was added to each well, and incubated at room temperature for 1 h. The plate was washed 3 times with PBST, and then the HRP-labeled his antibody was diluted with sample diluent at 1:5000, 100 μ L was added to each well, and incubated at room temperature for 1 h. It was washed 6 times with a plate washer, and patted dry on a flat paper. TMB color developing solution was added at 100 μL/well, and wrapped with aluminum foil. Color development was performed at 37° C. in the dark for 8 min. Termination solution 1M HCl was added to terminate the color development reaction at 100 μL/well. Readings were taken at 450 nm on an ELISA reader.

[4] = molecular target: T4, Human TNFR2 mFc (human, UniProt P20333 23-257); test: bridging ELISA: Human TNFR2 mFc coated (0.3 ug/mL), antibody titrated, then Human 4-1BB His (0.3 ug/mL), HRP anti-His detection (Example 5)
T4 construct: Bought protein; not shown: mFc
T4 sequence (looked up): T1 sequence (looked up)
Description: (§2) Human TNFR2 mFc (manufacturer: Kaixia, CAT: TN-HM3R2, LOT: 031202) was diluted to 0.3 μg/mL with a coating solution (1×PBS, pH7.4) and coated into a 96-well ELISA plate at 100 μL/well at 4° C. overnight. The coating solution was poured off. Each well was washed with 1×PBST at 300 μL, washed 4 times with a plate washer, and patted dry on a flat paper. It was blocked with 3% skim milk powder at 300 μL/well, and incubated at 37° C. for 1 h. The blocking solution was poured off, washed 4 times with a plate washer, and patted dry on a flat paper. […] Starting at 50 nM, which was used as the initial concentration for 3-fold dilution, a total of 10 gradients were diluted, and a blank well was set up and only the diluent was added. It was incubated at 37° C. for 1 h at 100 µL/well. The liquid in the well was discarded, washed 4 times with a plate washer, and patted dry on a flat paper. Human 4-1BB His (manufacturer: Acro, CAT: 41B-H5258, LOT: 198-2146F1-W6) was diluted to 0.3 μg/mL, 100 μL was added to each well, and incubated at room temperature for 1 h. The plate was washed 3 times with PBST, and then the HRP-labeled his antibody was diluted with sample diluent at 1:5000, 100 μ L was added to each well, and incubated at room temperature for 1 h. It was washed 6 times with a plate washer, and patted dry on a flat paper. TMB color developing solution was added at 100 μL/well, and wrapped with aluminum foil. Color development was performed at 37° C. in the dark for 8 min. Termination solution 1M HCl was added to terminate the color development reaction at 100 μL/well. Readings were taken at 450 nm on an ELISA reader.

[5] = molecular target: T2, Human 4-1BB His; test: as above
Description: as §2

[6] = molecular target: T1, Human-TNFR2-His; test: ELISA: Human-TNFR2-His coated (0.1 ug/mL), antibody titrated, goat anti-human IgG Fc detection (Example 2); remark: listed apart in the source
Description: as §1

T2 sequence (Q07011 24-186 limits assumed): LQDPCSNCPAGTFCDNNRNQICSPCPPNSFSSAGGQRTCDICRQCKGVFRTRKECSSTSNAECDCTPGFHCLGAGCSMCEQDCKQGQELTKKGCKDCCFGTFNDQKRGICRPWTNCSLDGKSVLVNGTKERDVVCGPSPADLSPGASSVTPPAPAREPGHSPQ
T3 sequence (Q07011 24-186 limits assumed): as above

Binder | EC50 (read off the curve) [1] | EC50 (read off the curve) [2] | EC50 (read off the curve) [3] | EC50 (read off the curve) [4] | binding result [1] | binding result [5] | binding result [4] | binding result [6]
B1 | ~0.08 nM | ~0.3 nM | ~0.4 nM | ~0.2 nM |  |  |  | 
B2 |  |  |  |  | binds | binds | binds | 
B3 |  |  |  |  |  | binds | binds | binds
